Results reported in the supplement of paper PMC10567573.
± gives the standard deviation.

Experiment: protein stability index of a GFP-peptide fusion (GPS, HEK-293T) (PSI 1-6); higher = more stable
[1] = treatment: DMSO, c terminus: a fixed tail appended
[2] = treatment: MLN4924 1 uM, 8 h, c terminus: a fixed tail appended
[3] = treatment: DMSO, c terminus: native
[4] = treatment: MLN4924 1 uM, 8 h, c terminus: native
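Further: 24-mer peptide tiles fused after GFP, lentivirally expressed, FACS-sorted into six equal bins by GFP/DsRed ratio, decoded by Illumina sequencing, PSI is the read-weighted mean bin number.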

Row | Sequence | protein stability index [1] | protein stability index [2] | protein stability index [3] | protein stability index [4]
1 | CYYQPAPYVSDGNFSNYYVAHPPV [TENT5C] | 2.24 ± 0.3 | 2.43 ± 0.45 | – | –
2 | QKKDCVPLMKPHRPWADTCSSSGK [HESX1] | 3.49 ± 0.52 | 3.67 ± 0.53 | – | –
3 | KDFLTGMCLFLQSLRQKQPERLCS [GMPPB] | 2.25 ± 0.44 | 2.23 ± 0.36 | – | –
4 | HSALGGTKKKKKTIVTDVFQGSMR [USP39] | 4.02 ± 0.4 | 4.14 ± 0.058 | – | –
5 | CSHNLCQACARNILVQTPESESPQ [TRIM9] | 3.57 ± 0.33 | 3.85 ± 0.33 | – | –
6 | ELNAEKFKNSLLQKELKKAQMAKA [WEE1] | 4 ± 0.84 | 3.42 ± 0.4 | – | –
7 | FVLDENDNAPAVLHPRPDWEHSAP [PCDHGC5] | 3.33 ± 0.22 | 3.62 ± 0.31 | – | –
8 | HWTSAPLTEASAHSHPPEIKDQGG [MAP2] | 5.14 ± 0.14 | 5.18 ± 0.18 | – | –
9 | LYKEELEQTYHAKLENARLSSEMN [LMNB1] | 3.21 ± 0.64 | 3.62 ± 0.25 | – | –
10 | QIKTLLALSCHEQEMVVSSLVIGA [SLC2A12] | 3.78 ± 0.47 | 3.1 ± 0.55 | – | –
11 | QIPVTDSGRHILEDSCAELGESKE [SDE2] | 5.35 ± 0.12 | 5.19 ± 0.38 | – | –
12 | AVVAAGGGSSGQVTSNGSIGRDPP [CLPTM1] | 4.75 ± 0.13 | 4.88 ± 0.26 | – | –
13 | METSPSEEDSFYRSSYPQQQGLGA [TBX5] | 4.37 ± 0.073 | 4.47 ± 0.17 | – | –
14 | ARIAIRGTIKKIIHQETVSKNGNG [PCMTD2] | 3.01 ± 0.22 | 3.21 ± 0.27 | – | –
15 | YRLGYFDDALEDFKKVLDLNPGFQ [TTC32] | 2.59 ± 0.2 | 2.41 ± 0.41 | – | –
16 | VSDRLAPGAPRGNPPKASAAPDCT [MYCL] | 4.94 ± 0.22 | 4.95 ± 0.19 | – | –
17 | THIMKGEDDALSDKHGCPAYVSPE [TRIB1] | 5.12 ± 0.14 | 4.91 ± 0.22 | – | –
18 | LLAAREDLSKIIRTSSGTSREKTA [FAM98B] | 4.05 ± 0.15 | 4.23 ± 0.24 | – | –
19 | VQELLPAACLLQLKGVKQACCEFL [KLHL12] | 2.27 ± 0.28 | 1.81 ± 0.37 | – | –
20 | ASGLTGFIGLEVVAQLFNCMVGLL [ATL3] | 2.26 ± 0.16 | 2.15 ± 0.1 | – | –
21 | LAPEVIQSKGHGRAVDWWALGILI [PRKX] | 2.61 ± 0.86 | 2.3 ± 0.62 | – | –
22 | VSVNAQTLDGRTPLHLAAQRGHYR [RIPK4] | 3.76 ± 0.29 | 3.77 ± 0.58 | – | –
23 | DHSGFISLDEFRQTWKLFSSHMNI [PPEF2] | 2.29 ± 0.26 | 2.08 ± 0.36 | – | –

Row | Sequence | protein stability index [1] | protein stability index [2] | protein stability index [3] | protein stability index [4]
24 | PEDEVIVNQYVIRPGPSASAASSA [RNF208] | 4.61 ± 0.12 | 4.62 ± 0.16 | – | –
25 | LDLSKNKLQQLPADFGRLVNLQHL [LRRC59] | 2.54 ± 0.33 | 2.63 ± 0.26 | – | –
26 | SLMYRSPPGAEEPQAPPASRDEAA [RETREG3] | 5.44 ± 0.22 | 5.38 ± 0.26 | – | –
27 | HNQVEAAWLEGRIRQEFDKLREFL [TRIM35] | 3.5 ± 0.52 | 3.75 ± 0.48 | – | –
28 | DPDGKKIKQIQQLFEEILSNSRQL [FBXO33] | 2.54 ± 0.41 | 2.77 ± 0.24 | – | –
29 | HFFALKVMSIPDVIRLKQEQHVHN [PRKX] | 2.25 ± 0.28 | 2.17 ± 0.1 | – | –
30 | CLEGSINEHSAHCPHTPEFSVTGG [RPAIN] | 4.2 ± 0.41 | 4.07 ± 0.21 | – | –
31 | VGAAGSARQELLGDRPRWQRLLGE [ANKRD9] | 3.54 ± 0.27 | 3.31 ± 0.15 | – | –
32 | SGLQGLPECTRCGHGIVGTIVKAR [PDLIM4] | 2.51 ± 0.32 | 2.64 ± 0.34 | – | –
33 | FYQLVWSALPFITYLENKGHRYPC [POP5] | 2.88 ± 0.69 | 3.09 ± 0.53 | – | –
34 | GEDCKLPPQPCATACKPVIRVPSV [KRT36] | 3.3 ± 0.22 | 3.23 ± 0.22 | – | –
35 | AIIISTIVLDRALHIPMYFFLAIL [OR10K2] | 3.04 ± 0.47 | 3.04 ± 0.33 | – | –
36 | QSFCGENIMMPMGGMMPPGPGIPP [ZNF207] | 3.15 ± 0.31 | 3.27 ± 0.26 | – | –
37 | KAMAKLSKLASNGTPMGTFAPLWE [FCHO1] | 2.23 ± 0.41 | 2.48 ± 0.12 | – | –
38 | TRRLRLAHVGMELQLKQELAMLNA [SCARA5] | 2.65 ± 0.23 | 2.55 ± 0.22 | – | –
39 | PHLMPSNCGLEEKIANLGSCNDSK [S100A14] | 2.61 ± 0.9 | 1.66 ± 0.27 | – | –
40 | SNSRQLKWLSCGFMLEIVTPTSLS [FBXO33] | 3.39 ± 0.73 | 2.83 ± 0.67 | – | –
41 | HSLTPVSSDHLFLFGGFTTDKQPL [KLHDC2] | 2.95 ± 0.46 | 3.21 ± 0.27 | – | –
42 | VLQHVRLPLLSPKFLVGTVGSDPL [KLHL20] | 2.22 ± 0.28 | 2.13 ± 0.1 | – | –
43 | CHQMGVVHRDLKPENLLLASKCKG [CAMK2B] | 3.7 ± 0.16 | 3.84 ± 0.39 | – | –
44 | PRMLRESGHGDAHLQEYAGNFQGI [FATE1] | 4 ± 0.24 | 4.22 ± 0.13 | – | –
45 | EEAVTVLEDLESELDDPGQPVSLR [ZNF24] | 5.58 ± 0.24 | 5.47 ± 0.21 | – | –
46 | NFRDLVRDLEKQKEEVRAALEQRE [TRIM29] | 4.54 ± 0.11 | 4.43 ± 0.21 | – | –

Row | Sequence | protein stability index [1] | protein stability index [2] | protein stability index [3] | protein stability index [4]
47 | AVSTEDLKECLKKQLEFCFSRENL [LARP4] | 2.65 ± 0.55 | 3.11 ± 0.68 | – | –
48 | MCEQCDVFYCDPCRLRCHPPRGPL [TRIM9] | 2.8 ± 0.32 | 2.72 ± 0.35 | – | –
49 | DTVFRFDPRYNKWMQVASLNEKRT [KLHL13] | 2.87 ± 0.41 | 3.14 ± 0.41 | – | –
50 | YIIQQGGWGTVFSLESEEEEYPGI [BCL2L13] | 2.46 ± 0.36 | 2.9 ± 0.36 | – | –
51 | TPLPETGYWRVRLWNGDKYAATTT [TRIM39] | 2.47 ± 0.34 | 2.37 ± 0.2 | – | –
52 | QRKVDGIQKAYDELRLQSEAFKKH [CCDC89] | 4.07 ± 0.19 | 4.21 ± 0.3 | – | –
53 | DETTRSDISERPSVDDIESETGST [C2CD2L] | 5.68 ± 0.1 | 5.6 ± 0.32 | – | –
54 | VLLIKDRTSKSRGFAFITFENPAD [RBMY1A1] | 2.83 ± 0.88 | 3.06 ± 1.5 | – | –
55 | LNIYKTLKTHLIEKGILQPTLKV [CDS1] | – | – | 2.71 ± 0.94 | 2.86 ± 0.8
56 | VDPIGHLYIFATCLGLSYDGLLGD [MAGEA3] | 3.06 ± 0.37 | 3.21 ± 0.34 | – | –
57 | HNDLWESWFVPDPAGIFKLNHHS [GLT8D2] | – | – | 2.87 ± 0.15 | 2.9 ± 0.41
58 | VAHVESLQEKSQCALEEYVRSQYP [NR2F2] | 3.6 ± 0.28 | 3.96 ± 0.25 | – | –
59 | SEPYKLLPGAVATIVKPLSAIPQP [HNF4A] | 3.44 ± 0.3 | 3.59 ± 0.16 | – | –
60 | GQGGKLWDPSVQSCKEGLSPRGPA [ZNF263] | 3.9 ± 0.12 | 4.08 ± 0.16 | – | –
61 | KAGRRMFPACRVSVTGLDPEARYL [TBX6] | 2.36 ± 0.56 | 1.86 ± 0.2 | – | –
62 | NTKRAIHTLAVMNDRLYAIGGNHL [KLHL14] | 2.2 ± 0.19 | 2.3 ± 0.14 | – | –
63 | CLTTGDVIAINYNEKIYELRVMET [UFD1] | 2.25 ± 0.35 | 2.04 ± 0.27 | – | –
64 | LLPTLYEIHSKTTAYSRLNETQPI [RNF180] | 1.96 ± 0.15 | 2.15 ± 0.41 | – | –
65 | AYIATQGPLAETTEDFWRMLWEHN [PTPRD] | 2.79 ± 0.46 | 2.8 ± 0.37 | – | –
66 | SPSPMSHGHYSMHCLHSAGHSQPD [DLX1] | 3.82 ± 0.18 | 3.91 ± 0.21 | – | –
67 | FDAALVSFINFFTSVLATLVVFAV [SLC6A17] | 3.44 ± 0.4 | 3.44 ± 0.97 | – | –
68 | LGDRLNVEVDTAPTVDLNQVLNET [KRT34] | 4.87 ± 0.15 | 4.96 ± 0.29 | – | –
69 | LMGPSRMSLFSLYMVQDQHECILP [M1AP] | 2.58 ± 0.3 | 2.33 ± 0.24 | – | –

Row | Sequence | protein stability index [1] | protein stability index [2] | protein stability index [3] | protein stability index [4]
70 | VEGKCLQSGFEMLKDVKSTLEKCE [TRIM39] | 4.31 ± 0.21 | 4.41 ± 0.19 | – | –
71 | KKLTGGANWQPKVAPATWSAGVPP [SNAP91] | 3.27 ± 0.18 | 3.34 ± 0.14 | – | –
72 | DAGEESRVQVLKNEVRRGSPVLLG [TIAF1] | 4.33 ± 0.092 | 4.55 ± 0.24 | – | –
73 | LQNFSSSWSDGMAFCALVHSFFPD [SMTNL2] | 2.6 ± 0.39 | 2.42 ± 0.44 | – | –
74 | TLMTMAIRIIDRALKEDFGFKHRL [PRIM1] | 2.99 ± 0.62 | 2.9 ± 0.54 | – | –
75 | LKEDGMETVPWFPKKISDLDHCAN [TPH1] | 4.11 ± 0.25 | 4.09 ± 0.21 | – | –
76 | QYIAQFTSQFLSLQCLQALYVDSL [PRAME] | 3.237 ± 0.011 | 3.47 ± 0.23 | – | –
77 | PPTRGPPPSYGGSSRYDDYSSSRD [RBMX] | 5.05 ± 0.23 | 4.93 ± 0.19 | – | –
78 | YHRRHNPKTNEDFEFLYNALEFWR [IQUB] | 1.86 ± 0.36 | 2.61 ± 0.82 | – | –
79 | ILDTDEYVLKYMESNAAQYSPEAL [EFHC1] | 3.99 ± 0.31 | 3.96 ± 0.38 | – | –
80 | TGTSKRYQLCRVQECPPDGRSFRE [ADAMTSL2] | 2.58 ± 0.71 | 3.09 ± 0.62 | – | –
81 | LKLWEIGKIIGGMWRDLTDEEKQE [SMARCE1] | 2.67 ± 0.55 | 3.44 ± 0.43 | – | –
82 | TYEEAAAYIQCQFEDLNKRKDTKE [GNAI1] | 4.61 ± 0.15 | 4.67 ± 0.12 | – | –
83 | MEKGPVRAPAEKPRGARCSNGFPE [GCH1] | 4.46 ± 0.29 | 4.58 ± 0.25 | – | –
84 | FSRENLSKDLYLISQMDSDQFIPI [LARP4] | 2.17 ± 0.45 | 2.13 ± 0.36 | – | –
85 | EDTQTDADSSAQAAAQAPENFQEG [TAF7L] | 5.47 ± 0.52 | 5.57 ± 0.42 | – | –
86 | TEEVKFYQLGEEALLKFREDEGFV [KCNA4] | 4.16 ± 0.3 | 4.3 ± 0.24 | – | –
87 | CSDSDKKCHLWTAMDLGFFVVMGV [CLCN6] | 2.95 ± 0.63 | 2.97 ± 0.5 | – | –
88 | LREERGHPLHPRHRKAVHLRTRGR [C6orf223] | 4.08 ± 0.23 | 4.06 ± 0.36 | – | –
89 | NSAMPFKILYDDGKMVEEVDGRAT [PTPRD] | 4.69 ± 0.32 | 4.62 ± 0.13 | – | –
